Test results published in patent publication US20100076177A1 (published 2010).
Blank lines part the entries; values can stand above or below the binder they belong to.

Tests used:
[1] = biological target: mannan-binding lectin (MBL) (human, UniProt P11226 21-248); assay: BIAcore 3000
hDC-SIGN = biological target: T1, hDC-SIGN (human, UniProt Q9NNX6 60-404); assay: BIAcore 3000
T1 chain: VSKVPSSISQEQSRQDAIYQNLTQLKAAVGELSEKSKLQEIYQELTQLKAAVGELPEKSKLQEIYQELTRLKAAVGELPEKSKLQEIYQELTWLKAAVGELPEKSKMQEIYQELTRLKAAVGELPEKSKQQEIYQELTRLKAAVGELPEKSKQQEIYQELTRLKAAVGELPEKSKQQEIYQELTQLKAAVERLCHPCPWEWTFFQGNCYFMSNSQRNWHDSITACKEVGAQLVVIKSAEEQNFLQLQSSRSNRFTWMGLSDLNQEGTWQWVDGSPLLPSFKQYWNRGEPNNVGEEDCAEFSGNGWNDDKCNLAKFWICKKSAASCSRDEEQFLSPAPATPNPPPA

mannan-binding lectin (MBL), sequence (P11226 21-248): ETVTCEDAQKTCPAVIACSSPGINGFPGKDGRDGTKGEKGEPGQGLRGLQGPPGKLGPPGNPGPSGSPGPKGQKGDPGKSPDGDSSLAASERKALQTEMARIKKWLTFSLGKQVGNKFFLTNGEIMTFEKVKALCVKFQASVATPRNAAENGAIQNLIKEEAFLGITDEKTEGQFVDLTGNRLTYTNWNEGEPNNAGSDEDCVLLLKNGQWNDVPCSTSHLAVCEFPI

- Kd [1]: 1.24 nM
B1: murine monoclonal antibody directed to human mannose binding lectin (the "initial antibody" of Example 1) (antibody, V domains shown)
VH: VQLQESGPGLVKPSQSLSLTCTVTGYSITSDYAWNWIRQFPGNKLEWMGYISYSGSTSYNPSLKSRVSITRDTSKNQFFLQLNSVTTEDTATYYCARWESWFAYWGQGTLVTVSA
VL: DIVLTQSPATLSVTPGDSVSLSCRASQSISNDLHWYQQKSHESPRLLIKYASQSISGIPSRFSGSGSGTDFTLSINSVETEDFGMYFCQQSNSWPYTFGGGTKLEIK

- Kd (hDC-SIGN): 3.88 nM
B2: AZN-D1, murine monoclonal antibody directed to h-DC-SIGN (the "initial antibody" of Example 2) (antibody, V domains shown)
VH: QVQLQQSGPQSVRPGASVKISCKASGYSFTSYWMGWVKQRPGQGLEWIGMIDPFDSESRLNQEFKDKATLTVDKSSSTVYMQLSSPTSEDSAIYYCVRRNGGYYVFDSWGQGTTLTVSS
VL: DVLMTQSPLSLPVSLGDKASISCRSSQNIVHSNGDTYLEWYLQRPGQSPKLLIFKVSNRFSGVPDRFSGSGSGTDFILKISRVEAEDLGVYYCFQGSHVPWTFGGGTKLEIK
